“And” between values parts separate entries of the source, which are not always exact repeats. Identical values can stand only once. No end group written: not given here.
Assays:
[1] = target: T1, human NPY Y4 receptor (Homo sapiens, UniProt P50391); test: GTPγS binding functional assay: NPY Y4 receptor membranes; type: biochemical
T1 construct: expressed in transfected cells; host or cells: CHO cells (membrane preparation)
Source text: Peptide YY (PYY) and pancreatic polypeptide (PP) are native satiety factors secreted from intestine and pancreas, respectively, in response to food ingestion, and are reduced upon fasting. PYY and PP may both be isolated in their full-length form which are 36-residue peptide amides. PYY can also be further cleaved by the enzyme DPPIV into a shorter biologically active form PYY(3-36). Peripheral injection of PYY(3-36) or PP causes reduction in food intake and body weight in animal models and in humans. Patients with morbid obesity have both reduced basal and meal-stimulated PYY(3-36) and/or PP levels. In contrast, patients with anorexia, or weight loss after bypass surgery, have higher than normal plasma PYY(3-36) and/or PP. Agonism of PYY(3-36) and PP are of great therapeutic value in treating obesity and metabolic diseases. NPY Y2 and Y4 are receptors with the highest affinity to PYY(3-36) and PP, respectively. NPY receptors belong to the G-protein coupled receptor family. Upon agonist stimulation, the NPY receptor may stimulate the down-streamed G-protein, exchanging its bound GDP for a GTP. […]
One T150 flask of recombinant CHO cells over-expressing human NPY Y2 or Y4 receptors were grown in F-12 medium (HAM, with L-glutamine) with G418 at 0.5 mg/ml until confluent. […] Protein concentration was measured and aliquots were stored at −80° C. until use. […]

[2] = test system: HEK parental cells; test: cAMP levels in HEK parental cells; type: cell-based, human
[3] = target: MuSA (Mus musculus, UniProt P07724); test: Biacore kinetics of SABAs on immobilized serum albumin: MuSA; type: binding
[4] = Differential Scanning calorimetry (DSC) thermostability of midscaled SABAs; type: physicochemical; conditions: 1 mg/ml solution, 5° C. to 95° C. at 1 degree per minute
Experimental: Differential Scanning calorimetry (DSC) analyses of the midscaled SABAs were performed to determine their respective Tm's. A 1 mg/ml solution was scanned in a N-DSC II calorimeter (calorimetry Sciences Corp) by ramping the temperature from 5° C. to 95° C. at a rate of 1 degree per minute under 3 atm pressure. The data was analyzed vs. a control run of the appropriate buffer using a best fit using Orgin Software (OrginLab Corp).

[5] = Half-life of HSA and of SABA1-4 with or without HSA in mice (ELISA, WinNonlin); type: in vivo, Ncr nude female mice; conditions: for half-life in mice plasma: injected without HSA; for increase in half life when co-injected with HSA: with HSA vs without HSA, mice
Experimental: The pharmacokinetic parameters of each Adnectin™ were determined using non-compartmental modeling with WinNonlin software.

[6] = target: HSA (Homo sapiens, UniProt P02768)
Experimental: (§1) In addition, binding to albumin was carried out under various pH conditions ranging from pH 5.5 to pH 7.4.

[7] = Analytical size exclusion chromatography (SEC) of SABAs; type: physicochemical; conditions: midscaled material
Experimental: Size exclusion chromatography (SEC) was performed on the SABAs resulting from the HTPP. SEC of HTPP derived material was performed using a Superdex 200 5/150 or Superdex 75 5/150 column (GE Healthcare) on an Agilent 1100 or 1200 HPLC system with UV detection at A214 nm and A280 nm and with fluorescence detection (excitation=280 nm, emission=350 nm). A buffer of 100 mM sodium sulfate, 100 mM sodium phosphate, 150 mM sodium chloride, pH 6.8 at appropriate flow rate of the SEC column employed. Gel filtration standards (Bio-Rad Laboratories, Hercules, Calif.) were used for molecular weight calibration.
Midscale expression and purification yielded highly pure and active Adnectins™ that were expressed in a soluble form and purified from the soluble fraction of the bacterial cytosol.
Standard size exclusion chromatography (SEC) was performed on the candidate SABAs resulting from the midscale process. SEC of midscaled material was performed using a Superdex 200 10/30 or on a Superdex 75 10/30 column (GE Healthcare) on an Agilent 1100 or 1200 HPLC system with UV detection at A214 nm and A280 nm and with fluorescence detection (excitation=280 nm, emission=350 nm). A buffer of 100 mM sodium sulfate, 100 mM sodium phosphate, 150 mM sodium chloride, pH 6.8 at appropriate flow rate of the SEC column employed. Gel filtration standards (Bio-Rad Laboratories, Hercules, Calif.) were used for molecular weight calibration.

[8] = target: RhSA (Macaca mulatta, UniProt Q28522); test: Biacore kinetics of SABAs on immobilized serum albumin: RhSA; type: binding, rhesus
Experimental: as §1

[9] = Single dose pharmacokinetics of SABA1.1 and SABA5.1 in cynomolgus monkeys; type: in vivo; conditions: 1 mpk IV
[10] = target: T2, Human serum albumin (Homo sapiens, UniProt P02768); test: SPR (ProteOn XPR36) binding of SABA-neuropeptide fusions to Human Serum Albumin; conditions: 25° C., average of two experiments
T2 construct: purchased Novozymes Recombumin
Experimental: Surface Plasmon Resonance (SPR) is a direct binding technique by which molecular interactions can be observed in real time. For these experiments, SPR binding studies were performed using a ProteOn XPR36 instrument (BioRad Laboratories). The running buffer, phosphate buffered saline 0.05% Tween 20 pH 7.4, was purchased from Teknova (cat #P1192) and all experiments were run at 25° C. Human serum albumin was directly immobilized on a BioRad GLC chip via amine coupling as per manufacturer's guidelines using amine coupling reagents purchased from BioRad Laboratories. Human serum albumin was purchased from Novozymes (Recombumin™). About 5000 resonance units (RU) of human serum albumin were immobilized onto 4 separate lanes of the GLC chip surface. For each analyte, five concentrations ranging from 15.6 nM to 250 nM were injected over the surface at 30 μl/min for 240 seconds. The dissociation was monitored for 600 seconds. The surface was regenerated with 100 mM HCl. The resultant data were fitted to a Langumuir 1:1 binding model using the ProteOn Manager Software. The experiment was repeated with a different concentration range. In this second experiment, 5 concentrations ranging from 500 nM to 32 nM were injected over the surfaces, and the data analyzed as above. The KD is the disassociation constant. Smaller numbers indicate tighter binding to serum albumin. Molecules covalently attached to SABA that bind to serum albumin display longer in vivo pharmokinetic half-lives, as described earlier with respect to SABA-FGF-21 fusions.

[11] = co-injected with HSA (3-4 molar excess), tail vein

MuSA, sequence (P07724 25-608): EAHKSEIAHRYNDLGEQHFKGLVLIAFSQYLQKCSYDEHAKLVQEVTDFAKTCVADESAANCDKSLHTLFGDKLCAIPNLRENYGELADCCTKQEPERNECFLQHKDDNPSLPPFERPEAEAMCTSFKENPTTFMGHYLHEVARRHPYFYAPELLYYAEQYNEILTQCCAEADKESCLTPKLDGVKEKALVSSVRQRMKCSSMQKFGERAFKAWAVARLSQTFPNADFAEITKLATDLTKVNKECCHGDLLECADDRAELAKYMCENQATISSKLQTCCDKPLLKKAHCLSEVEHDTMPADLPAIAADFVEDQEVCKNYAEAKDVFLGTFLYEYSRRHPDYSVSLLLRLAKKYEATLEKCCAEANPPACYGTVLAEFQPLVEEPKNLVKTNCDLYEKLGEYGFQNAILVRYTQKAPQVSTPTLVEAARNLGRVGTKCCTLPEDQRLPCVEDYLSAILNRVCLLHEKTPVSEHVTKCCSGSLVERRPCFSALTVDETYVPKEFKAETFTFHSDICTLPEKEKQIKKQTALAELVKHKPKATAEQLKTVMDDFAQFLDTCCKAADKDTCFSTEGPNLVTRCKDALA
RhSA, sequence (Q28522 17-600): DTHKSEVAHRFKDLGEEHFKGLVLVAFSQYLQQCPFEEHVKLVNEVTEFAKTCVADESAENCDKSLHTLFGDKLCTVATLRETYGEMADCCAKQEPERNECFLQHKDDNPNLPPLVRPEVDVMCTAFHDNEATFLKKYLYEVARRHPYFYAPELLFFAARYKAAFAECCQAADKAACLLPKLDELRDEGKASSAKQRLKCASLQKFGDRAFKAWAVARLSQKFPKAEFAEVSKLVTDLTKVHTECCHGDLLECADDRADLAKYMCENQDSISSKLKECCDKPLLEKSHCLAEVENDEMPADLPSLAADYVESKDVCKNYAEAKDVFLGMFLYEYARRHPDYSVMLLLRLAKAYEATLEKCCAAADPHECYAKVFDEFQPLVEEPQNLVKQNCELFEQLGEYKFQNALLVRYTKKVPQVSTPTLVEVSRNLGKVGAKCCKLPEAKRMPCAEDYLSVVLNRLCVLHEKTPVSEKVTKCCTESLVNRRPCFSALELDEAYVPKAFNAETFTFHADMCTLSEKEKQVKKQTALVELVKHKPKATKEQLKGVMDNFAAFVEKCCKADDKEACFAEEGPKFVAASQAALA
T1 sequence (P50391 whole entry): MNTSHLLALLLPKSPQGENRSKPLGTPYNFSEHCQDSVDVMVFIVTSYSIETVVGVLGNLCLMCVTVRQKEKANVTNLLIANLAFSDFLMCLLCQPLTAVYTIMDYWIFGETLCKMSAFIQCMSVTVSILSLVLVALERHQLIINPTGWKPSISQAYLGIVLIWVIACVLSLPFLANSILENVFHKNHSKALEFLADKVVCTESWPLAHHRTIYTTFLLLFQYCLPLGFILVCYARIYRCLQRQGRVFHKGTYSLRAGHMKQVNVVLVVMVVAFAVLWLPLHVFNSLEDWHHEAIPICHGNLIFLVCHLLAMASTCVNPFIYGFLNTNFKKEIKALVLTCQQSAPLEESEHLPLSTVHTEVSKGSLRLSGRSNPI

Work on “APLEPMYPGDYATPEQMAQYETQLRRYINTLTRPRY-NH2 [PP Control Peptide]” yielded an Efficacy [1] of 100 and an EC50 ([1]; read-out: Potency (EC50)) of 1.7 nM.

For “KCNTATCATQRLANFLVRSSNNLGPVLPPTNVGSNTY [Amylin Control Peptide, reference compound]”, the “effect on cAMP levels in the HEK parental cells” value [2] was “no significant effect”.

B1: SABA1.1: core SABA1 with N-terminal MGVSDVPRDLE, C-terminal EIDKPSQ and His6 tag; SEQ ID NO: 89 (protein)
chain: MGVSDVPRDLEVVAATPTSLLISWHSYYEQNSYYRITYGETGGNSPVQEFTVPYSQTTATISGLKPGVDYTITVYAVYGSKYYYPISINYRTEIDKPSQHHHHHH
In the case of B1, the “cross reaction with MuSA” value [3] is reported as “did not cross react”, the “DSC (Tm)” value [4] is reported as 63.9 °C and the “PK (T½) Mice” value [5, 11] is reported as 5.6 h. The “half-life in mice plasma” value [5] was 0.56 h, the “increase in half life when co-injected with HSA” value [5] was roughly 10 fold and the “Resistant to pH 7.4→5.5?” value ([6]; binding to HSA from pH 7.4 down to pH 5.5, symbols not defined) was “fits biochemical criteria for pH resistance and affinity/kinetics down to pH 5.5”. The “SEC Dimer (%)” value [7] was 7.7%, the “SEC Monomer (%)” value [7] was 92.3% and the “cross reaction with RhSA” value [8] was “cross reacted”. The “AUCall” value ([9]; individual monkeys #1 and #2) was 673.7 µg·h/mL and 625.1 µg·h/mL, the “Cl_obs” value ([9]; individual monkeys #1 and #2) was 1.45 mL/h/kg and 1.60 mL/h/kg and the “Cmax” value ([9]; individual monkeys #1 and #2) was 9030 ng/mL and 7240 ng/mL. The “Vz_obs” value ([9]; individual monkeys #1 and #2) was 0.2008 L/kg and 0.3152 L/kg and the “t½” value ([9]; individual monkeys #1 and #2) was 95.8 h and 136.6 h.

B2: SABA1-AMYv25: SEQ ID NO: 328; SABA1.7-(ED)5G-Cys conjugated to Maleimide-PEG20-Amylin-CONH2 (conjugate)
chain: MGVSDVPRDLEVVAATPTSLLISWHSYYEQNSYYRITYGETGGNSPVQEFTVPYSQTTATISGLKPGVDYTITVYAVYGSKYYYPISINYRTEIEDEDEDEDEDGC
modifications: Maleimide-PEG20-Amylin-CONH2 conjugated via Cys
For B2, the “effect on cAMP levels in the HEK parental cells” value [2] was “no significant effect”, the “Koff (1/s)” value [10] was 2.41 10^−4 1/s and the “Kon (1/Ms)” value [10] was 9.34 10^3 1/Ms.

B3: SABA3.1: His-tagged SABA3 sequence (protein)
chain: MGVSDVPRDLEVVAATPTSLLISWSNDGPGLSYYRITYGETGGNSPVQEFTVPSSQTTATISGLKPGVDYTITVYAVSYYTKKAYSAGPISINYRTEIDKPSQHHHHHH
modifications: His6 tag
For B3, the “cross reaction with MuSA” value [3] was “did not cross react”, the “DSC (Tm)” value [4] was 65.2 °C and the “PK (T½) Mice” value ([5]; co-injected with HSA) was 0.533 h. For the same molecule, the “PK (T½) Mice” value [5, 11] was 0.53 h, the “half-life in mice plasma” value [5] was 0.28 h and the “Comments: T½ in mice in words” value ([5]; mouse, in vivo) was “Poor T½ observed in mice”. For the same molecule, the “increase in half life when co-injected with HSA” value [5] was roughly 2 fold, the “SEC Dimer (%)” value [7] was “BLD” and the “SEC Monomer (%)” value [7] was 99%. The “cross reaction with RhSA” value [8] was “cross reacted”.

B4: SABA5.1: His-tagged SABA5 sequence (protein)
chain: MGVSDVPRDLEVVAATPTSLLISWEDDSYYSRYYRITYGETGGNSPVQEFTVPSDLYTATISGLKPGVDYTITVYAVTYDVTDLIMHEPISINYRTEIDKPSQHHHHHH
modifications: His6 tag
With B4 the “cross reaction with MuSA” value [3] was “did not cross react”, the “DSC (Tm)” value [4] was 70.1 °C and the “PK (T½) Mice” value [5, 11] was 4.6 h. For the same molecule, the “Comments: decrease in KD observed at pH <6.0” value ([6]; pH <6.0) was >2-fold decrease in KD observed at, the “SEC Dimer (%)” value [7] was 12% and the “SEC Monomer (%)” value [7] was 88%. For the same molecule, the “Comments: binding affinity for RhSA” value [8] was “Poor binding affinity for RhSA”, the “cross reaction with RhSA” value [8] was “cross reacted” and the “AUCall” value ([9]; Mean, N 2) was 246.882 µg·h/mL. For the same molecule, the “Cl_obs” value ([9]; Mean, N 2) was 4.089 mL/h/kg, the “Cmax” value ([9]; Mean, N 2) was 17358 ng/mL and the “HL_Lambda_z” value ([9]; Mean, N 2) was 12.186 h. The “Vz_obs” value ([9]; Mean, N 2) was 0.072507 L/kg.

From patent US9540424B2, “Serum albumin binding molecules” (BRISTOL-MYERS SQUIBB COMPANY, priority 2010, dated 2017)
